Measured values taken from patent publication US20030068675, “Position dependent recognition of GNN nucleotide triplets by zinc fingers” (published 2003).

Key:
Assay in all cases: EMSA
Conditions in all cases: tags: MBP fusion
ZFP SBS#370 = target: T1, ZFP SBS#370 (synthetic)
T1 chain: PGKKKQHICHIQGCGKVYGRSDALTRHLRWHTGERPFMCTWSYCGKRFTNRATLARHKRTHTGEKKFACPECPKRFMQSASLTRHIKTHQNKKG
Outline: (§1)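 Purified ZFP was titrated against labeled double-stranded target (1 nM or lower, at least 10-fold below expected Kd) carrying the natural binding site with flanks. Binding buffer was 10 mM Tris pH 7.5, 100 mM KCl, 1 mM MgCl2, 0.1 mM ZnCl2, 5 mM DTT, 10% glycerol, 0.02% BSA, with equilibration for at least 45 min. Bound and free target were separated on a 10% polyacrylamide gel.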

ZFP SBS#373 = target: T2, ZFP SBS#373 (synthetic)
T2 chain: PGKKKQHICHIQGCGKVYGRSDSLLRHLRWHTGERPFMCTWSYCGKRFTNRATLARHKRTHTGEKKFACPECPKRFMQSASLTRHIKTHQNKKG
Outline: as §1

ZFP SBS#369 = target: T3, ZFP SBS#369 (synthetic)
T3 chain: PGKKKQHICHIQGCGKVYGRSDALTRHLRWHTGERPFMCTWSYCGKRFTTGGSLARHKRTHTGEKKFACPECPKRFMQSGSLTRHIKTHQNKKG
Outline: as §1

ZFP SBS#403 = target: T4, ZFP SBS#403 (synthetic)
T4 chain: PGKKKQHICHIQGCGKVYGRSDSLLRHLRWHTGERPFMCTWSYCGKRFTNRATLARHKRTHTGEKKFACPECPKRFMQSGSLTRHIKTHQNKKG
Outline: as §1

ZFP SBS#422 = target: T5, ZFP SBS#422 (synthetic)
T5 chain: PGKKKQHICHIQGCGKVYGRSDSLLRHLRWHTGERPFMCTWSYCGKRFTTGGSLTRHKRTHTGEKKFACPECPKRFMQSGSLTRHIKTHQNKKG
Outline: as §1

ZFP SBS#569 = target: T6, ZFP SBS#569 (synthetic)
T6 chain: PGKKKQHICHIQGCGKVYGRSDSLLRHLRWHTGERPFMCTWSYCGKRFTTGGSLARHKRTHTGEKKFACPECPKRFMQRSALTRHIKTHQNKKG
Outline: as §1

ZFP SBS#401 = target: T7, ZFP SBS#401 (synthetic)
T7 chain: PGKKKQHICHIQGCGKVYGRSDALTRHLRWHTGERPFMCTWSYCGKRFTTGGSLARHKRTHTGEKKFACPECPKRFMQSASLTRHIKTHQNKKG
Outline: as §1

ZFP SBS#421 = target: T8, ZFP SBS#421 (synthetic)
T8 chain: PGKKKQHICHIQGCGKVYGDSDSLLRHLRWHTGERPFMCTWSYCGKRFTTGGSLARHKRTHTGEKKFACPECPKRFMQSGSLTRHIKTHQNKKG
Outline: as §1

ZFP SBS#371 = target: T9, ZFP SBS#371 (synthetic)
T9 chain: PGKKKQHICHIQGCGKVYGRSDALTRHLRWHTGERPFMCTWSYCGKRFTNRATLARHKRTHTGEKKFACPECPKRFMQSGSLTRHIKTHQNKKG
Outline: as §1

ZFP SBS#372 = target: T10, ZFP SBS#372 (synthetic)
T10 chain: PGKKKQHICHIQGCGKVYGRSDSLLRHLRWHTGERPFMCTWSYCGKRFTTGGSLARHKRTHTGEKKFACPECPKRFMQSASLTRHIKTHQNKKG
Outline: as §1

ZFP SBS#665 = target: T11, ZFP SBS#665 (synthetic)
T11 chain: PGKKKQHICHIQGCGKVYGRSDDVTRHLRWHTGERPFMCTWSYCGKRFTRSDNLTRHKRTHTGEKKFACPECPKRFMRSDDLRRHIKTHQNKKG
Outline: as §1

ZFP SBS#666 = target: T12, ZFP SBS#666 (synthetic)
T12 chain: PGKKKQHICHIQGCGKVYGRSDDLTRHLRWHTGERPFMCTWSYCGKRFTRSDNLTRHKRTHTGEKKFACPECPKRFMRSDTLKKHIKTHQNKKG
Outline: as §1

ZFP SBS#614 = ZFP SBS#614 (synthetic)
Chain of ZFP SBS#614 (synthetic) (chain, as listed by the source): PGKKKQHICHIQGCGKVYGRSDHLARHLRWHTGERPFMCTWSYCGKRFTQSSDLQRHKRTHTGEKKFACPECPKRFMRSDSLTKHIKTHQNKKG
Outline: as §1

ZFP SBS#608 = target: T13, ZFP SBS#608 (synthetic)
T13 chain: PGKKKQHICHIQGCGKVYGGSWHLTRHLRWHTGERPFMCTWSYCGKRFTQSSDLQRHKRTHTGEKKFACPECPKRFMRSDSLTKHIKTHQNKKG
Outline: as §1

ZFP SBS#613 = ZFP SBS#613 (synthetic)
Chain of ZFP SBS#613 (synthetic) (chain, as listed by the source): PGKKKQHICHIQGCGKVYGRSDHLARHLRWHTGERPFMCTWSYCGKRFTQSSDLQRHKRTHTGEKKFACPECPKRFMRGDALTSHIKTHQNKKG
Outline: as §1

ZFP SBS#611 = ZFP SBS#611 (synthetic)
Outline: as §1

ZFP SBS#612 = target: T14, ZFP SBS#612 (synthetic)
T14 chain: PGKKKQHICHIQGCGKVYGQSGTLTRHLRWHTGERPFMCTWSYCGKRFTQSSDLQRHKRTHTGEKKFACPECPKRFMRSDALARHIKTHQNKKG
Outline: as §1

ZFP SBS#616 = ZFP SBS#616 (synthetic)
Outline: as §1

ZFP SBS#618 = target: T15, ZFP SBS#618 (synthetic)
T15 chain: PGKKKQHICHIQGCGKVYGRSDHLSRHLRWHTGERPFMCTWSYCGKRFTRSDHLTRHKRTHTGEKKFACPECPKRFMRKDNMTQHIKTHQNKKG
Outline: as §1

ZFP SBS#621 = target: T16, ZFP SBS#621 (synthetic)
T16 chain: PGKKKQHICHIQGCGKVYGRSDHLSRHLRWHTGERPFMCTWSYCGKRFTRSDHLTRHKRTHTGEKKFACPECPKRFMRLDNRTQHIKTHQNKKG
Outline: as §1

ZFP SBS#617 = target: T17, ZFP SBS#617 (synthetic)
T17 chain: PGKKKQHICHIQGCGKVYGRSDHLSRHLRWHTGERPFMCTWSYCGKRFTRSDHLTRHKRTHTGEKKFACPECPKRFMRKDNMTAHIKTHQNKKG
Outline: as §1

ZFP SBS#619 = target: T18, ZFP SBS#619 (synthetic)
T18 chain: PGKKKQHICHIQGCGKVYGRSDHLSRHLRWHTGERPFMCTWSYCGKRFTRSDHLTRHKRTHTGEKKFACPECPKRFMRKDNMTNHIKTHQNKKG
Outline: as §1

ZFP SBS#620 = ZFP SBS#620 (synthetic)
Chain of ZFP SBS#620 (synthetic) (chain, as listed by the source): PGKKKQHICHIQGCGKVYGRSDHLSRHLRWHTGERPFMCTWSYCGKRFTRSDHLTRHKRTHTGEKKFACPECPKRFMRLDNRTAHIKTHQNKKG
Outline: as §1

ZFP SBS#624 = target: T19, ZFP SBS#624 (synthetic)
T19 chain: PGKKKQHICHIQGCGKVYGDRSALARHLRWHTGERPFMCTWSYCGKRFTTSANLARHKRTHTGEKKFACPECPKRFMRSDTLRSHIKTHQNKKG
Outline: as §1

ZFP SBS#629 = target: T20, ZFP SBS#629 (synthetic)
T20 chain: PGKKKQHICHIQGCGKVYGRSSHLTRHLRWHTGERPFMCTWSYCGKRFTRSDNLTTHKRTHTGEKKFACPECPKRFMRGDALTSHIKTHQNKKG
Outline: as §1

ZFP SBS#628 = target: T21, ZFP SBS#628 (synthetic)
T21 chain: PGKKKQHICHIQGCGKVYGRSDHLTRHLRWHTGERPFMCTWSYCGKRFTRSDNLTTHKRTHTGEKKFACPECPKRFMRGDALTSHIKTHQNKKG
Outline: as §1

ZFP SBS#630 = ZFP SBS#630 (synthetic)
Outline: as §1

ZFP SBS#646 = target: T22, ZFP SBS#646 (synthetic)
T22 chain: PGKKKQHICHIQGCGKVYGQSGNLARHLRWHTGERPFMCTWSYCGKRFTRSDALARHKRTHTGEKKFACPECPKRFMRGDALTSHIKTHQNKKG
Outline: as §1

ZFP SBS#647 = target: T23, ZFP SBS#647 (synthetic)
T23 chain: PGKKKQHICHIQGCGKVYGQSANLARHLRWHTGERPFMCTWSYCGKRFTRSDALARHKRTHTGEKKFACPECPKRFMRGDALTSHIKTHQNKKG
Outline: as §1

ZFP SBS#651 = ZFP SBS#651 (synthetic)
Chain of ZFP SBS#651 (synthetic) (chain, as listed by the source): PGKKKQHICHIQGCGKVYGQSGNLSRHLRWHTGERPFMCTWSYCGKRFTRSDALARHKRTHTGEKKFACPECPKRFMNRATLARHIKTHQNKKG
Outline: as §1

ZFP SBS#652 = ZFP SBS#652 (synthetic)
Chain of ZFP SBS#652 (synthetic) (chain, as listed by the source): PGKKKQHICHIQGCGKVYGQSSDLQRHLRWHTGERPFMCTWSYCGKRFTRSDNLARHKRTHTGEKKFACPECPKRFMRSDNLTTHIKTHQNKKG
Outline: as §1

ZFP SBS#653 = target: T24, ZFP SBS#653 (synthetic, UniProt P08047)
T24 chain: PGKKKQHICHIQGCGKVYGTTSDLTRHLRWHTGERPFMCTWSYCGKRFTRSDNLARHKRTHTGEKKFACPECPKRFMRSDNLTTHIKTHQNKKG
Outline: as §1

ZFP SBS#656 = ZFP SBS#656 (synthetic)
Chain of ZFP SBS#656 (synthetic) (chain, as listed by the source): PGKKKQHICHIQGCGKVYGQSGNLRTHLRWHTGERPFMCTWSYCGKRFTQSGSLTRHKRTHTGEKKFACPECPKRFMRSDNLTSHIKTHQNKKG
Outline: as §1

ZFP SBS#654 = ZFP SBS#654 (synthetic)
Outline: as §1

ZFP SBS#657 = target: T25, ZFP SBS#657 (synthetic)
T25 chain: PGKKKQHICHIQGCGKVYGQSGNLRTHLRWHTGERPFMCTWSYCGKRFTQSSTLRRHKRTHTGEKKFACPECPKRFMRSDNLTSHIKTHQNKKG
Outline: as §1

ZFP SBS#660 = target: T26, ZFP SBS#660 (synthetic)
T26 chain: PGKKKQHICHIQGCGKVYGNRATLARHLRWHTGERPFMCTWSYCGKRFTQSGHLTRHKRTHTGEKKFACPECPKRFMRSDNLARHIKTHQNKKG
Outline: as §1

ZFP SBS#661 = ZFP SBS#661 (synthetic)
Chain of ZFP SBS#661 (synthetic) (chain, as listed by the source): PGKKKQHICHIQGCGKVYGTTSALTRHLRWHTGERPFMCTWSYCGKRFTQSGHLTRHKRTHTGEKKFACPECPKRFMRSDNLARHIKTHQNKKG
Outline: as §1

B1: GTAGTTGTG (dsDNA)
DNA 1: GTAGTTGTG
DNA 2: CACAACTAC
Kd (ZFP SBS#370): 300 nM | Kd (ZFP SBS#373): 320 nM | Kd (ZFP SBS#369): 95 nM | Kd (ZFP SBS#403): 750 nM | Kd (ZFP SBS#422): 200 nM | Kd (ZFP SBS#569): 52 nM | Kd (ZFP SBS#401): 80 nM | Kd (ZFP SBS#421): 500 nM | Kd (ZFP SBS#371): 175 nM | Kd (ZFP SBS#372): 112 nM

B2: GCGGAGGCGC (dsDNA)
DNA 1: GCGGAGGCGC
DNA 2: GCGCCTCCGC
Kd (ZFP SBS#665): 12.5 nM | Kd (ZFP SBS#666): 0.5 nM

B3: TTGGCTGGGC (dsDNA)
DNA 1: TTGGCTGGGC
DNA 2: GCCCAGCCAA
Kd (ZFP SBS#614): 2 nM | Kd (ZFP SBS#608): 8 nM | Kd (ZFP SBS#613): 1.45 nM

B4: GTGGCTGCAG (dsDNA)
DNA 1: GTGGCTGCAG
DNA 2: CTGCAGCCAC
Kd (ZFP SBS#611): 11.5 nM | Kd (ZFP SBS#612): 0.38 nM

B5: GAGGAGGATG (dsDNA)
DNA 1: GAGGAGGATG
DNA 2: CATCCTCCTC
Kd (ZFP SBS#616): 0.08 nM

B6: AAGGGGGGG (dsDNA)
DNA 1: AAGGGGGGG
DNA 2: CCCCCCCTT
Kd (ZFP SBS#618): 0.55 nM | Kd (ZFP SBS#621): 0.75 nM | Kd (ZFP SBS#617): 1 nM | Kd (ZFP SBS#619): 1.34 nM | Kd (ZFP SBS#620): 0.54 nM

B7: ACGGATGTCT (dsDNA)
DNA 1: ACGGATGTCT
DNA 2: AGACATCCGT
Kd (ZFP SBS#624): 7 nM

B8: TTGTAGGGGA (dsDNA)
DNA 1: TTGTAGGGGA
DNA 2: TCCCCTACAA
Kd (ZFP SBS#629): 150 nM | Kd (ZFP SBS#628): 130 nM

B9: CGGGGAGAGT (dsDNA)
DNA 1: CGGGGAGAGT
DNA 2: ACTCTCCCCG
Kd (ZFP SBS#630): 37.5 nM

B10: TTGGTGGAAG (dsDNA)
DNA 1: TTGGTGGAAG
DNA 2: CTTCCACCAA
Kd (ZFP SBS#646): 35 nM | Kd (ZFP SBS#647): 40 nM

B11: GTTGTGGAAT (dsDNA)
DNA 1: GTTGTGGAAT
DNA 2: ATTCCACAAC
Kd (ZFP SBS#651): 67.5 nM

B12: TAGGAGGCTG (dsDNA)
DNA 1: TAGGAGGCTG
DNA 2: CAGCCTCCTA
Kd (ZFP SBS#652): 1.5 nM | Kd (ZFP SBS#653): 5.5 nM

B13: TAGGCATAAA (dsDNA)
DNA 1: TAGGCATAAA
DNA 2: TTTATGCCTA
Kd (ZFP SBS#656): 540 nM | Kd (ZFP SBS#654): 105 nM | Kd (ZFP SBS#657): 300 nM

B14: GAGGGAGTTC (dsDNA)
DNA 1: GAGGGAGTTC
DNA 2: GAACTCCCTC
Kd (ZFP SBS#660): 8.25 nM | Kd (ZFP SBS#661): 1.73 nM
